These results are taken from publication PMC4822050, “Hemi-methylated DNA opens a closed conformation of UHRF1 to facilitate its histone recognition” (Nature Communications, 2016).

What all share (conditions): both partners purified
Assay [1] has as its target T1, PHD of UHRF1 (residues 307–366) (human, UniProt Q96T88 307-366).
T1 construct: human UHRF1, PHD, residues 307–366; also called plant homeodomain; the isolated PHD
T1 sequence (looked up): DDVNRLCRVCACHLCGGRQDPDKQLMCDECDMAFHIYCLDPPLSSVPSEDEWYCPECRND
The experiment in a line: ITC; 0.05 mM protein in the cell, 0.5 mM protein or peptide in the syringe, iTC200, 18 °C, 10 mM HEPES pH 8.0, 100 mM NaCl. Background: In ITC the heat of successive injections is recorded.

The target in assay [2] is T2, full-length UHRF1 (residues 1–793) (human, UniProt Q96T88 1-793).
T2 construct: human UHRF1, residues 1–793; monomer by gel filtration; also called wild-type UHRF1; ICBP90
T2 sequence (looked up): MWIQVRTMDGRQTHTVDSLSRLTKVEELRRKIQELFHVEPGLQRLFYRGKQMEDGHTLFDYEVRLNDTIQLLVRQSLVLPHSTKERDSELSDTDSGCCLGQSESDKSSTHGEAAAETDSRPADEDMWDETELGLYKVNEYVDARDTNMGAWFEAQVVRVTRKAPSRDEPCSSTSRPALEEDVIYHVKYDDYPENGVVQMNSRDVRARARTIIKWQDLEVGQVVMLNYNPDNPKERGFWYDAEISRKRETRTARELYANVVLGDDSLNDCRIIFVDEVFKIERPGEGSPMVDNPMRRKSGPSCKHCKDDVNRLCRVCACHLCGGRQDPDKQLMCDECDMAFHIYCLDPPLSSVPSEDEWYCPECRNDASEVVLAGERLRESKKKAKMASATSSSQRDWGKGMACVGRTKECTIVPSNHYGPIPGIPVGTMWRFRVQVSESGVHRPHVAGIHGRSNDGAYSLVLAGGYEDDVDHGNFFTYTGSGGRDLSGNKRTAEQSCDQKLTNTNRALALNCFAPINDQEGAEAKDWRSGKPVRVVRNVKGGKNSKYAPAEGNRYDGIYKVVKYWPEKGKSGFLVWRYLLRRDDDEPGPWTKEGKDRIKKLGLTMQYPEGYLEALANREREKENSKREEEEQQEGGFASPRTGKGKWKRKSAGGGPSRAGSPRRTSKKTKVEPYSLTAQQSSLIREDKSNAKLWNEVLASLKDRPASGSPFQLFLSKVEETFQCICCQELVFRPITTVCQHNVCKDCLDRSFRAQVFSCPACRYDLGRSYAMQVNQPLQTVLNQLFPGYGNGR
The description is as above.

In assay [3] the target is T3, UHRF1^Δ627–674 (human, UniProt Q96T88 1-793, Δ627–674).
T3 construct: also called spacer deletion mutant
T3 sequence (looked up): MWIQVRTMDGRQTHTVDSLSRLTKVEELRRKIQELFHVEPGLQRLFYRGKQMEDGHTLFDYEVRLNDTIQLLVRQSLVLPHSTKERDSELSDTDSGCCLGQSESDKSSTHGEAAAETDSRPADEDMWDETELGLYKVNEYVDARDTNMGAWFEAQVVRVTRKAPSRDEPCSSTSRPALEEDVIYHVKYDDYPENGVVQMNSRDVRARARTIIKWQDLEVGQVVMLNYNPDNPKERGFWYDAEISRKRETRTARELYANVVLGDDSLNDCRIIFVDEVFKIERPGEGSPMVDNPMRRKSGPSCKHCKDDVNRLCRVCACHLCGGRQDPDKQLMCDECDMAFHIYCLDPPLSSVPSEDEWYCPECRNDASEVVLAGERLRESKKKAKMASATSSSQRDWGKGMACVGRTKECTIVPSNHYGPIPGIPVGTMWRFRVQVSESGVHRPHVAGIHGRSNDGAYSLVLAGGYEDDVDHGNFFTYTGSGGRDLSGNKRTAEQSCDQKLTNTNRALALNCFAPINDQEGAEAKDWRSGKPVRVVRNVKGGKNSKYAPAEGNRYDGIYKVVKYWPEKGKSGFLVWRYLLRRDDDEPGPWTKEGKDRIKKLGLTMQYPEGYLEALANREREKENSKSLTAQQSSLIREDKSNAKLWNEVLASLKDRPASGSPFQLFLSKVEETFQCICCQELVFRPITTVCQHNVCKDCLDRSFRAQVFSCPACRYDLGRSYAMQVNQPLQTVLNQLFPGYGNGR
The experiment in a line: pull-down; GST pull-down: 15 μg GST-tagged protein with 40 μg recombinant protein in 500 μl 20 mM HEPES-NaOH pH 8.0, 100 mM NaCl, 5% glycerol, 0.1% Triton X-100, 4 °C, glutathione resin, Coomassie staining; some panels with increasing hm-DNA.

B1: H3 peptide (1–17) (peptide, UniProt P68431 2-18, looked up)
peptide: ARTKQTARKSTGGKAPR
notes: histone H3, residues 1–17; also called H3K9me0; unmethylated histone H3
Consider B1, for which the “fold higher binding affinity than with full-length UHRF1” value in assay [1] was about 34 fold. The same molecule came in with an equilibrium dissociation constant (Kd) in assay [2] of 26 µM.

B2: GST-tagged Spacer of UHRF1 (domain or fragment, human, UniProt Q96T88 587-674, looked up)
chain: PGPWTKEGKDRIKKLGLTMQYPEGYLEALANREREKENSKREEEEQQEGGFASPRTGKGKWKRKSAGGGPSRAGSPRRTSKKTKVEPY
notes: also called GST-Spacer
Consider B2, for which the binding result in assay [3] was “binds”.

The term Kd denotes the constant that tells how readily two partners part at equilibrium. A low value points to higher affinity.
